Patent US20210071247

Columns and labels:
[1] = system: AMV reverse transcriptase (Avian myeloblastosis virus); settings: LNA at GATA and GAAC of 3' 12-mer GATAgcttGAAC of SEQ 2 (mC LNA), PS linkages in the 12-mer; iSp18 spacer and 3' amino in DCP1; read-through efficiency, 42 C; lost above 52.5 C
[2] = biological target: PrimeScript reverse transcriptase (UniProt P03355); settings: LNA at GATA and GAAC of 3' 12-mer GATAgcttGAAC of SEQ 2 (mC LNA), PS linkages in the 12-mer; iSp18 spacer and 3' amino in DCP1; read-through efficiency, 42 C
Volcano2G DNA polymerase = Volcano2G DNA polymerase (UniProt P19821); settings: LNA at GATA and GAAC of 3' 12-mer GATAgcttGAAC of SEQ 2 (mC LNA), PS linkages in the 12-mer; iSp18 spacer and 3' amino in DCP1; first strand read-through efficiency vs DTT1, ddPCR, 42 C
Chain of Volcano2G DNA polymerase (P19821 whole entry): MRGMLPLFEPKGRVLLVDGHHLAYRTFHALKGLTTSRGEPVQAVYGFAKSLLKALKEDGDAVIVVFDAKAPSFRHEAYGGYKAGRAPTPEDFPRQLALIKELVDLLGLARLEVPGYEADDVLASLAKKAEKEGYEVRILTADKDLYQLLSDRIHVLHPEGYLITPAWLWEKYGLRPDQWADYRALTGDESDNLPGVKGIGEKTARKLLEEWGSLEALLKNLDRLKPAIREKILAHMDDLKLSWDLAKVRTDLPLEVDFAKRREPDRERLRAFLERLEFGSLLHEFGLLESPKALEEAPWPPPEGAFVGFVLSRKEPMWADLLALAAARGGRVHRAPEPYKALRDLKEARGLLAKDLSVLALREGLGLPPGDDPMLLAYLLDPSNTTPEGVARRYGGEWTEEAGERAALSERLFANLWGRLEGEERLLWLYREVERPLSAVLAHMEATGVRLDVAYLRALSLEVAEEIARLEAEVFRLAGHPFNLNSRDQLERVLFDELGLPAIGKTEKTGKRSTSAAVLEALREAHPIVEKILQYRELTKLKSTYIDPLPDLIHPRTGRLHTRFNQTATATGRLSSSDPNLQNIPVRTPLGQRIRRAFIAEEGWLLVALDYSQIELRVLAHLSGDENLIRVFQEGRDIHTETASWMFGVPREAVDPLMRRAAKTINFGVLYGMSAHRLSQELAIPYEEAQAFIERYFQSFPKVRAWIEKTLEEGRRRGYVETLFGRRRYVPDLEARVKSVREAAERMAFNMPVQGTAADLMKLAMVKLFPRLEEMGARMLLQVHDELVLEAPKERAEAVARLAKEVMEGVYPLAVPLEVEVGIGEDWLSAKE

For “GCGTAACTAGACCATAAGCCGATAGCTTGAACCGGACCAGCAAGCTTAGAGATCACGGTATCCAGATTCGCTCATAGTACACAACTGCCTCCGGTTCAA / GCAGTTGTGTACTATGAGCGA [LTT1 template with DCP1_primer1]”, the activity [1] was 0.1%, the activity [2] was 0.1% and the activity (Volcano2G DNA polymerase) was 10%.
